{"source": "patent US11407819B2", "about": "“Compositions and use of a fibrinogen binding motif present in EFB and COA for therapeutics and vaccines against Staphylococcus aureus” (priority 2013, dated 2022)", "target": "T1, rCoa-C binding to Fg (Homo sapiens, UniProt P02671+P02675+P02679)", "T1 construct": "full-length human Fibrinogen (diluted in PBS, Enzyme research); purchased Enzyme research; host or cells: Coa probe made in E. coli BL21", "T1 sequence (P02671 20-629 limits assumed)": "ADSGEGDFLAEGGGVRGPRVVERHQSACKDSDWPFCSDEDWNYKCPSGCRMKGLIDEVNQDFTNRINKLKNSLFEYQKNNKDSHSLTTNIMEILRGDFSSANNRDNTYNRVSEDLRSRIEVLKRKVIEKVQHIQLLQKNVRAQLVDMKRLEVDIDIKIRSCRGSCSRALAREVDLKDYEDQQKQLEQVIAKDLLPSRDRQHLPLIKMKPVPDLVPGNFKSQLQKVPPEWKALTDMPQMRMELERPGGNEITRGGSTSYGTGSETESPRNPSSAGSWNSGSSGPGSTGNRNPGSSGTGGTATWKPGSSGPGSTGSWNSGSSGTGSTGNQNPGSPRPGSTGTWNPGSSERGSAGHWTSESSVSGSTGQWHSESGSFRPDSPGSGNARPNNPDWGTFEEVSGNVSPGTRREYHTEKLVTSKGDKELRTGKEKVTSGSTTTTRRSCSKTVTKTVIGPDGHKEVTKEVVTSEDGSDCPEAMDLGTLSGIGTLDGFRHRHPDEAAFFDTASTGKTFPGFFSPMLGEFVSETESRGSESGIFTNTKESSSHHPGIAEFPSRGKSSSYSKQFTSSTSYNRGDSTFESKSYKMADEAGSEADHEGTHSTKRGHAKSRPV", "T1 sequence (P02675 31-491)": "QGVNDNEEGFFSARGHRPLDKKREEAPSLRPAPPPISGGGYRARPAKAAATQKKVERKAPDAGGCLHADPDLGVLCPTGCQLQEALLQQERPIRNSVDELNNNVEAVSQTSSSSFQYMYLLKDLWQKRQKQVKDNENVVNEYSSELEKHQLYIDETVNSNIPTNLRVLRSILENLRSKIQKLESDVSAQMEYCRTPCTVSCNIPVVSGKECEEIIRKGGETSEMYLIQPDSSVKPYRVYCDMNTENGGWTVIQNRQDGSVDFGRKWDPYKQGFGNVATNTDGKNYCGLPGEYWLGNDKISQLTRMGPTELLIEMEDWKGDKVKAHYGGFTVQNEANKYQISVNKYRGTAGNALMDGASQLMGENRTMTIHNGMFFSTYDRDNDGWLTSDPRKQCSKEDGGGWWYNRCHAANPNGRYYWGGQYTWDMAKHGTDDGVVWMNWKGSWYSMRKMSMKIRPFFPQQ", "T1 sequence (P02679 27-453)": "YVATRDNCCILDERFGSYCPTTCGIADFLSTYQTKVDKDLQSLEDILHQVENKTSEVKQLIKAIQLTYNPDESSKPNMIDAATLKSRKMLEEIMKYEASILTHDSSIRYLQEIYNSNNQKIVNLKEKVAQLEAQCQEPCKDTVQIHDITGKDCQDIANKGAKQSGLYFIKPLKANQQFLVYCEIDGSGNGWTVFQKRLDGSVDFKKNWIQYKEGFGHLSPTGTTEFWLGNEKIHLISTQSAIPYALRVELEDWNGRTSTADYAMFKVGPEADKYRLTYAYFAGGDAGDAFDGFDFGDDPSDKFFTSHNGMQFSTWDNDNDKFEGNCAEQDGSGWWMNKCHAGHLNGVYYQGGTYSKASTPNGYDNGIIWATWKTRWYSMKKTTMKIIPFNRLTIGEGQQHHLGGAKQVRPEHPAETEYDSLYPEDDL", "experiment": "Competition ELISA, peptide inhibition of rCoa-C (Coa 311-636) binding to Fg", "settings": "increasing concentrations of peptides; 4 nM GST fusion protein", "description": "The residues in Coa-RI important for fibrinogen binding. FIG. 12A is a panel of coa-RI variant peptides were synthesized where each residue in the sequence is individually replaced with Ala (or Ser when the native a.a. is Ala). […] Wells were coated with 0.25 μg/well Fg. Labels -1, -2, -3, -4, -5, -6, -7, -8, -9, -10, -11, -12, -13, -14, -15, -16, -17, -18, -19, -20, -21, -22, -23, -24, -25, -26, -27 refer to Coa-RI-1, Coa-RI-2, Coa-RI-3, Coa-RI-4, Coa-RI-5, Coa-RI-6, Coa-RI-7, Coa-RI-8, Coa-RI-9, Coa-RI-10, Coa-RI-11, Coa-RI-12, Coa-RI-13, Coa-RI-14, Coa-RI-15, Coa-RI-16, Coa-RI-17, Coa-RI-18, Coa-RI-19, Coa-RI-20, Coa-RI-21, Coa-RI-22, Coa-RI-23, Coa-RI-24, Coa-RI-25, Coa-RI-26, Coa-RI-27, respectively. FIG. 12C is a comparison of amino acid sequence of Efb-O with Coa-RI. FIG. 12D is a Fg-binding register of tandem repeats in Coa. Bold letters denote the residues that are important for Fg binding. Binding of a fixed concentration of rCoa-C (2 nM) to immobilized Fg was determined in the presence of a fixed concentration of these peptides (50 uM) (FIG. 12B). […]\nFIG. 13A is a schematic presentation of Coa peptides. […] The Fg binding activities of these peptides were then investigated in a competition ELISA where the binding of rCoa-C to Fg coated microtiter wells were determined in the presence of increasing concentrations of peptide (FIG. 13B). […]", "note": "“Also recorded” adds a separate entry of the source."}
{"substance": "sCoa-RI: synthetic peptide, first 27 residues of repeat region, Coa 506-532 (ETNAYNVTTHANGQVSYGARPTYKKPS)", "values": [{"measurement": "inhibition of rCoa-C binding to fibrinogen by overlapping Coa R peptides", "result": "some inhibitory activity; also recorded: most potent inhibitor"}]}
